Results taken from US20140322129A1 (Genentech, published 2014).

T1: cynomolgus monkey B7-H4 (cynomolgus monkey, UniProt Q7Z7D3 29-282 (human entry))
T1 construct: Expressed on stably transfected 293 cells; also called cyno B7-H4
T1 chain: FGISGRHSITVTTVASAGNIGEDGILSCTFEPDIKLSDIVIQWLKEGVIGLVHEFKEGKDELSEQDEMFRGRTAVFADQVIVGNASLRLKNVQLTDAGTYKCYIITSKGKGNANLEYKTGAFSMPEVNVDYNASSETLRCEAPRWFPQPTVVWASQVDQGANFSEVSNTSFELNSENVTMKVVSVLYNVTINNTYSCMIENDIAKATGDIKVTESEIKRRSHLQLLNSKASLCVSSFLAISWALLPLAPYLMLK

T2: irrelevant (Ig-V)-B7-H4 (Ig-C; D158-G236 including TM/CD D237-K282) chimeric membrane protein (Homo sapiens (Human), UniProt Q7Z7D3 158-282)
T2 construct: Transiently expressed on 293 cells; also called construct-88B; B7-H4 Ig-C domain; not shown: irrelevant Ig-V domain
T2 sequence: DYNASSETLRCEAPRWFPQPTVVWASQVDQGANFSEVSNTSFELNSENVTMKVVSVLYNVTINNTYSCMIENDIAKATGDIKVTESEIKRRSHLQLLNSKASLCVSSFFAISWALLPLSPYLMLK

B1: hu1D11.v1.8 (antibody, V domains shown)
VH: EVQLVQSGAEVKKPGASVKVSCKASGYTFTSYWIGWVRQAPGQGLEWIGDIYPGGGYTNYNEKFKGRATITRDTSTSTAYLELSSLRSEDTAVYYCARLDGSSYRGAMDSWGQGTLVTVSS
VL: DIQMTQSPSSLSASVGDRVTITCKASQGFNKYVAWYQQKPGKAPKLLIYYTSTLQPGVPSRFSGSGSGRDYTLTISSLQPEDFATYYCLQYGNLLYAFGQGTKVEIKR
notes: also called h1D11.v1.8
B2: ch1D11 with light chain C43G (antibody, V domains shown)
VH: QVQLQQSGAELVRPGTSVKMSCKASGYTFTSYWIGWAKQRPGHGFEWIGDIYPGGGYTNYNEKFKGKATLTADKSSSTAYMQFSSLTSEDSAIYYCARLDGSSYRGAMDSWGQGTSITVSS
VL: DIQMTQSPSSLSASLGGKVTITCKASQGFNKYVAWYQHKPGQGPRLLIHYTSTLQPGIPARFSGSGSGRDYSFSISNLEPEDSATYFCLQYGNLLYAFGGGTKLEIKR
notes: Dylight-488 or -650 labelled in the assay; also called slightly modified version of ch1D11
B3: ch22C10 (antibody, human IgG1, V domains shown)
VH: QVQLQQPGAELVKPGTSVKLSCKASGYTFTNFWIHWVIQRPGQGLEWIGEIDPSDSYTNYNQKFKGKATLTVDKSSNTAYMQLSSLTSEDSAVYYCSREITTVDYWGQGTTLTVSS
VL: QIVLTQSPTIMSASPGEKVTLTCSATSSISYMHWYQQKPGTSPKGWIYDTSKLAHGVPARFSGSGSGTSYSLTISSMEAEDAATYYCHQRRSYPFTFGSGTKLEIK
notes: also called chimeric 22C10; ch2210
B4: ch9B9 (antibody, human IgG1, V domains shown)
VH: QVQLQQSGAELMKPGASVKMSCKATGYTFSSYWIEWVKQRPGHGLEWIGEILPGTSITTYNAKFKVKATFTADTSSNTAYMQLSSLTSEDSAVYFCARYYFGSSSFYFDYWGQGTSLTVSS
VL: QAVVTQESALTTSPGDTVTLTCRSSTGAVTTSNYANWVQEKPDHLFTGLIGGTNNRVPGVPARFSGSLIGDKAALTITGAQTEDEAMYFCALWYNNHWVFGGGTKLE
notes: also called chimeric 9B9
B5: ch32D6 (antibody, human IgG1, V domains shown)
VH: EVQLQQSGPDLVKPGASVKISCKASGYSFTGYYIHWMKQSHGKSLEWIGRVNPNNGDPIYNQKFRGKAILTVDQSSNTAYMELRSLTSEASAVYYCARVLFYYGSPFAYWGQGTLVTVSA
VL: DIVMTQSPSSLIVTAGEKVTMSCRSSQSLFDSGSQRNYLTWFHQKPGRPPKLLIYWASTRESGVPDRFTGSGSGTDFTLTISSVQTEDLAVYFCQNDYSFPFTFGSGTKLEEK
notes: also called chimeric 32D6

How the values were obtained:
cynomolgus monkey B7-H4 = target: T1, cynomolgus monkey B7-H4; assay: FACS titration on 293-cyno B7-H4 cells, geometric mean fluorescence
Experimental: The small-scale preps were initially screened by FACS and Scatchard Analyses to determine species-specificity and affinity (Kd) to recombinant and endogenous B7-H4. Initial EC₅₀ and species specificity were determined by incubating different concentrations (0-10 μg/ml) of the humanized variants with 293 cells overexpressing recombinant human-, cynomolgus-, or mouse-B7-H4, and the tumor cell line, MX-1, expressing endogenous human B7-H4, at 4° C. for 40 minutes followed by a wash and staining with a secondary goat-anti-human IgG antibody conjugated to Dylight-650 for 20 minutes at 4° C. The fluorescent signal was acquired with a BD FACS Calibur and EC₅₀ values were determined with the Graph Pad program Prism 4.

[1] = target: T2, irrelevant (Ig-V)-B7-H4 (Ig-C; …); assay: FACS of Dylight-488 or -650 labelled antibody on 293 cells transiently transfected with construct-88B
From the text: To determine whether the B7-H4 antibodies bind to either the Ig-V or Ig-C domain of B7-H4, chimeric Ig domain molecules were engineered that contain either a B7-H4 (IgV; G28-F150 including spacer S151-V157)—irrelevant (Ig-C) (construct-88) or an irrelevant (Ig-V)-B7-H4 (Ig-C; D158-G236 including TM/CD D237-K282) (construct-88B) membrane protein using standard molecular cloning methods. N-terminal or cytoplasmic tags were attached to confirm that 293 cells transfected with these constructs express protein on the cell membrane (data not shown). Briefly, 293 cells were transiently transfected with constructs 88 & 88B using polyfect. After 48 hours, the cells were stained with 10 μg/ml of Dylight-488 or -650 labeled ch9B9, ch1D11, ch22C10 or ch32D6 for 30-40 minutes at 4° C., washed and analyzed on a BD FACS calibur.

| Binder | binding result (cynomolgus monkey B7-H4) | binding result [1] |
| --- | --- | --- |
| B1 | binds |  |
| B2 |  | no binding (tested: 10 ug/ml) |
| B3 |  | no binding (tested: 10 ug/ml) |
| B4 |  | no binding (tested: 10 ug/ml) |
| B5 |  | no binding (tested: 10 ug/ml) |
